We go through 3 substances from paper PMC8939814.

This experiment addresses CXCR2 (human) (UniProt P25025).
Sequence of UniProt P25025 (P25025 whole entry): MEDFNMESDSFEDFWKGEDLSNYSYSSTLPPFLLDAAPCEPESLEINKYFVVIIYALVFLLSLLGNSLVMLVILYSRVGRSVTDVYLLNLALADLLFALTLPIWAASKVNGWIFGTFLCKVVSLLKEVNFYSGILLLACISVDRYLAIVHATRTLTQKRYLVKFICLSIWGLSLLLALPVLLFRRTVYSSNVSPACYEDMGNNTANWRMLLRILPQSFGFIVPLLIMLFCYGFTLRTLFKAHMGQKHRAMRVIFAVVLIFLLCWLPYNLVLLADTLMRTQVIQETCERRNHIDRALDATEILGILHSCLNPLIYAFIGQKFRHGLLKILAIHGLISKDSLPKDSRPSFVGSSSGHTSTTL

In the case of “vCXCL1GT5, the non-ELR CXC chemokine encoded by HCMV UL146 genotype 5 (Davis strain), wild type (1–97) (ligand)”, the IP accumulation (G protein signaling, Gqi4myr) in transfected COS-7 cells, agonism at 1 μM (% of the maximal activity of CXCL8) came to 60.

The substance “vCXCL1_(GT5 (6–97)), N-terminally truncated vCXCL1GT5 (domain or fragment)” showed an IP accumulation (G protein signaling, Gqi4myr) in transfected COS-7 cells, agonism at 1 μM (% of the efficacy of CXCL8 on CXCR2) of 29. Same read-out and setting: the figure for “vCXCL1_(GT5 (4–97)), N-terminally truncated vCXCL1GT5 (domain or fragment)” is 31.
